# Results taken from patent US20170306346.
# T1: His-AtUBC36, Q9FZ48
# T1 chain: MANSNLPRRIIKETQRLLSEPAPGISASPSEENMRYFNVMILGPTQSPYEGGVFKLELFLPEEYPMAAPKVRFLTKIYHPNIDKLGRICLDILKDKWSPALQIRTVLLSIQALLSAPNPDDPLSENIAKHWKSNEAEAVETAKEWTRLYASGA
# T2: His-AtUBC2, P42745
# T2 chain: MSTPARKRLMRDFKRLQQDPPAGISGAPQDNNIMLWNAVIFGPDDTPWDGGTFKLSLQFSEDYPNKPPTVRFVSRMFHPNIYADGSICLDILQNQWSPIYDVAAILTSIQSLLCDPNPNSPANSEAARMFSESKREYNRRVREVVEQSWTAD
# T3: His-AtUBC31
# T3 sequence (Q9C8X7 1-154, looked up): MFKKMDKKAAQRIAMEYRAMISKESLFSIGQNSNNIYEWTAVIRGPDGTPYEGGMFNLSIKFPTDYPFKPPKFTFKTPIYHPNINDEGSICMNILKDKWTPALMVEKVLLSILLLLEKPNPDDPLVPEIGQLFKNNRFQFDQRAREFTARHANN
# Assays:
# His-AtUBC36, Q9FZ48 = biological target: T1, His-AtUBC36, Q9FZ48
# His-AtUBC2, P42745 = biological target: T2, His-AtUBC2, P42745
# His-AtUBC31 = biological target: T3, His-AtUBC31
# Chain of GST-MYC2-HA, Q39204 (Q39204 whole entry): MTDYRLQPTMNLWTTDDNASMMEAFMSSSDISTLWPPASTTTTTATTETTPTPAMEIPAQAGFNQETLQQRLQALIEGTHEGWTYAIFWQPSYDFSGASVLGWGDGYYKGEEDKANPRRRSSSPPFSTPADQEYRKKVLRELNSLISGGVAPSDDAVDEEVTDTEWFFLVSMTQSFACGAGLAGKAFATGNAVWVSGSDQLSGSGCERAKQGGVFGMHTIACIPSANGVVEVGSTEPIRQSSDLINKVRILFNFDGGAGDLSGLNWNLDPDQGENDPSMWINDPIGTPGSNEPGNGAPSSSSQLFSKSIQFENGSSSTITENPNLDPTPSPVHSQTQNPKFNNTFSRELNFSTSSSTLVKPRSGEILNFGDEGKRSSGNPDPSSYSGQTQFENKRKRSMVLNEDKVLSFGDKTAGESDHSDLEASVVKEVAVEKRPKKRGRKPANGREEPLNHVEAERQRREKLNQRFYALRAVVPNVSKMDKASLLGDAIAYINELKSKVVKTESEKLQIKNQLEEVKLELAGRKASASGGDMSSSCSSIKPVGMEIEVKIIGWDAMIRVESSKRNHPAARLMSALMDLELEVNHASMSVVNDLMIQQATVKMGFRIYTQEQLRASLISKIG
# Chain of His-AtUBC8, P35131 (P35131 whole entry): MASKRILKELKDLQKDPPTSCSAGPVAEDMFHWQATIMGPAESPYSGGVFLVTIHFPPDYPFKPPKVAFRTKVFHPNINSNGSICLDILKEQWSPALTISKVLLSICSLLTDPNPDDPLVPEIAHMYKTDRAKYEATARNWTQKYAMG
# Chain of myc-MYC2, Q39204 (Q39204 whole entry): as the sequence (Q39204 whole entry) above
protein,measurement,setting,value
MBP-PUB11-myc (protein) MAGGIVSPASLLDLIADIVEIPLNTGMFKKDCADLTRRVCLLTHLLEEIRDSTPIDSAASSSSENDWWSDLVVGLQAAKRLLSTARFQARDSSDGAAKRISFQFQCVTWKLEKALSNLPYDLYDISDEVGEQVELARSQLRRAMQRYGSLNSNKFSSALSEPMERDGFSNVIKIKAEEKLESVSETLHFGEEEEKQSSPPLRRSSSISLAYYLSKDADTDRLDKMVNKNTDESKKSDKLTIPVDFLCPVSLELMKDPVIVATGQTYERAYIQRWIDCGNLTCPKTQQKLENFTLTPNYVLRSLISRWCAEHNIEQPAGYINGRTKNSGDMSVIRALVQRLSSRSTEDRRNAVSEIRSLSKRSTDNRILIAEAGAIPVLVNLLTSEDVATQENAITCVLNLSIYENNKELIMFAGAVTSIVQVLRAGTMEARENAAATLFSLSLADENKIIIGGSGAIPALVDLLENGTPRGKKDAATALFNLCIYHGNKGRAVRAGIVTALVKMLSDSTRHRMVDEALTILSVLANNQDAKSAIVKANTLPALIGILQTDQTRNRENAAAILLSLCKRDTEKLITIGRLGAVVPLMDLSKNGTERGKRKAISLLELLRKACQ,"in vitro ubiquitination of MYC2 (E1, E2, Ub; Western blot)","GST-MYC2-HA, Q39204",MYC2 is a substrate of PUB11 E3 ligase
same,in vitro auto-ubiquitination of PUB11 with the UBC as E2,"His-AtUBC36, Q9FZ48",Each of these 4 UBCs was capable of supporting auto-ubiquitination of PUB10 and PUB11 in vitro although with varying degrees of activity
same,in vitro auto-ubiquitination of PUB11 with the UBC as E2,"His-AtUBC2, P42745",Each of these 4 UBCs was capable of supporting auto-ubiquitination of PUB10 and PUB11 in vitro although with varying degrees of activity
same,in vitro auto-ubiquitination of PUB11 with the UBC as E2,"His-AtUBC8, P35131",Each of these 4 UBCs was capable of supporting auto-ubiquitination of PUB10 and PUB11 in vitro although with varying degrees of activity ... The highest activity was obtained when UBC8 served as the ubiquitin conjugating enzyme
same,in vitro auto-ubiquitination of PUB11 with the UBC as E2,His-AtUBC31,Each of these 4 UBCs was capable of supporting auto-ubiquitination of PUB10 and PUB11 in vitro although with varying degrees of activity
HA-PUB10 (protein) MAGGAITPDSLIGLIAEINEIPGNFGLFKKDCSDLARRVGLLTHLIEEIRDSSPPSESDASSSLNSHECDWWSDLVVGLQAAKRLLSSATSFQARESSDGAAKRISFQFQCVTWKLEKALGDLTYDRYDISDEVREQVELARLQLRRAMQRYGSLNSKKFSSGLSEPMEKDASSNRKVIEKLESIPETVHSLSDEKKFESPPPWKSSSVSLAFFLSKDGDDERLEKAVTENSDDSQKSDNLTIPEDFLCPISLELMKDPAIVSTGQTYERSFIQRWIDCGNLSCPKTQQKLENFTLTPNYVLRSLISQWCTKHNIEQPGGYMNGRTKNSDGSFRDLSGDMSAIRALVCKLSSQSIEDRRTAVSEIRSLSKRSTDNRILIAEAGAIPVLVKLLTSDGDTETQENAVTCILNLSIYEHNKELIMLAGAVTSIVLVLRAGSMEARENAAATLFSLSLADENKIIIGASGAIMALVDLLQYGSVRGKKDAATALFNLCIYQGNKGRAVRAGIVKPLVKMLTDSSSERMADEALTILSVLASNQVAKTAILRANAIPPLIDCLQKDQPRNRENAAAILLCLCKRDTEKLISIGRLGAVVPLMELSRDGTERAKRKANSLLELLRKSSRKLGSL,myc-MYC2 protein level in double transgenic Arabidopsis seedlings (Western blot),"myc-MYC2, Q39204",induced expression of HA-PUB10 clearly resulted in a decrease in myc-MYC2 level
HA-PUB10 (C249A) (protein) MAGGAITPDSLIGLIAEINEIPGNFGLFKKDCSDLARRVGLLTHLIEEIRDSSPPSESDASSSLNSHECDWWSDLVVGLQAAKRLLSSATSFQARESSDGAAKRISFQFQCVTWKLEKALGDLTYDRYDISDEVREQVELARLQLRRAMQRYGSLNSKKFSSGLSEPMEKDASSNRKVIEKLESIPETVHSLSDEKKFESPPPWKSSSVSLAFFLSKDGDDERLEKAVTENSDDSQKSDNLTIPEDFLAPISLELMKDPAIVSTGQTYERSFIQRWIDCGNLSCPKTQQKLENFTLTPNYVLRSLISQWCTKHNIEQPGGYMNGRTKNSDGSFRDLSGDMSAIRALVCKLSSQSIEDRRTAVSEIRSLSKRSTDNRILIAEAGAIPVLVKLLTSDGDTETQENAVTCILNLSIYEHNKELIMLAGAVTSIVLVLRAGSMEARENAAATLFSLSLADENKIIIGASGAIMALVDLLQYGSVRGKKDAATALFNLCIYQGNKGRAVRAGIVKPLVKMLTDSSSERMADEALTILSVLASNQVAKTAILRANAIPPLIDCLQKDQPRNRENAAAILLCLCKRDTEKLISIGRLGAVVPLMELSRDGTERAKRKANSLLELLRKSSRKLGSL,myc-MYC2 protein level in double transgenic Arabidopsis seedlings (Western blot),"myc-MYC2, Q39204",induced expression of PUB10 (C249A) mutant protein resulted in an increase of MYC2 level
MBP-PUB10-6myc (protein) MAGGAITPDSLIGLIAEINEIPGNFGLFKKDCSDLARRVGLLTHLIEEIRDSSPPSESDASSSLNSHECDWWSDLVVGLQAAKRLLSSATSFQARESSDGAAKRISFQFQCVTWKLEKALGDLTYDRYDISDEVREQVELARLQLRRAMQRYGSLNSKKFSSGLSEPMEKDASSNRKVIEKLESIPETVHSLSDEKKFESPPPWKSSSVSLAFFLSKDGDDERLEKAVTENSDDSQKSDNLTIPEDFLCPISLELMKDPAIVSTGQTYERSFIQRWIDCGNLSCPKTQQKLENFTLTPNYVLRSLISQWCTKHNIEQPGGYMNGRTKNSDGSFRDLSGDMSAIRALVCKLSSQSIEDRRTAVSEIRSLSKRSTDNRILIAEAGAIPVLVKLLTSDGDTETQENAVTCILNLSIYEHNKELIMLAGAVTSIVLVLRAGSMEARENAAATLFSLSLADENKIIIGASGAIMALVDLLQYGSVRGKKDAATALFNLCIYQGNKGRAVRAGIVKPLVKMLTDSSSERMADEALTILSVLASNQVAKTAILRANAIPPLIDCLQKDQPRNRENAAAILLCLCKRDTEKLISIGRLGAVVPLMELSRDGTERAKRKANSLLELLRKSSRKLGSL,"in vitro ubiquitination of MYC2 (E1, AtUBC8 as E2, His-ubiquitin; Western blot)","GST-MYC2-HA, Q39204",MYC2 was indeed poly-ubiquitinated by PUB10 in vitro
same,in vitro auto-ubiquitination of PUB10 with the UBC as E2,"His-AtUBC36, Q9FZ48",Each of these 4 UBCs was capable of supporting auto-ubiquitination of PUB10 and PUB11 in vitro although with varying degrees of activity
same,in vitro auto-ubiquitination of PUB10 with the UBC as E2,"His-AtUBC2, P42745",Each of these 4 UBCs was capable of supporting auto-ubiquitination of PUB10 and PUB11 in vitro although with varying degrees of activity
same,in vitro auto-ubiquitination of PUB10 with the UBC as E2,"His-AtUBC8, P35131",Each of these 4 UBCs was capable of supporting auto-ubiquitination of PUB10 and PUB11 in vitro although with varying degrees of activity ... The highest activity was obtained when UBC8 served as the ubiquitin conjugating enzyme
same,in vitro auto-ubiquitination of PUB10 with the UBC as E2,His-AtUBC31,Each of these 4 UBCs was capable of supporting auto-ubiquitination of PUB10 and PUB11 in vitro although with varying degrees of activity
MBP-PUB10 (C249A)-6myc (protein) MAGGAITPDSLIGLIAEINEIPGNFGLFKKDCSDLARRVGLLTHLIEEIRDSSPPSESDASSSLNSHECDWWSDLVVGLQAAKRLLSSATSFQARESSDGAAKRISFQFQCVTWKLEKALGDLTYDRYDISDEVREQVELARLQLRRAMQRYGSLNSKKFSSGLSEPMEKDASSNRKVIEKLESIPETVHSLSDEKKFESPPPWKSSSVSLAFFLSKDGDDERLEKAVTENSDDSQKSDNLTIPEDFLAPISLELMKDPAIVSTGQTYERSFIQRWIDCGNLSCPKTQQKLENFTLTPNYVLRSLISQWCTKHNIEQPGGYMNGRTKNSDGSFRDLSGDMSAIRALVCKLSSQSIEDRRTAVSEIRSLSKRSTDNRILIAEAGAIPVLVKLLTSDGDTETQENAVTCILNLSIYEHNKELIMLAGAVTSIVLVLRAGSMEARENAAATLFSLSLADENKIIIGASGAIMALVDLLQYGSVRGKKDAATALFNLCIYQGNKGRAVRAGIVKPLVKMLTDSSSERMADEALTILSVLASNQVAKTAILRANAIPPLIDCLQKDQPRNRENAAAILLCLCKRDTEKLISIGRLGAVVPLMELSRDGTERAKRKANSLLELLRKSSRKLGSL,"in vitro ubiquitination of MYC2 (E1, AtUBC8 as E2, His-ubiquitin; Western blot)","GST-MYC2-HA, Q39204",The ubiquitination activity was greatly reduced when cysteine 249 was mutated to alanine 249
